According to patent publication US20210253725A1 (BIONTECH, published 2021):

Legend:
[1] = biological target: CD134 expressed on the cell surface of HT1080_OX40 cells (human) (UniProt P43489); assay: cell-based or functional assay
[2] = biological target: CD134 expressed on the cell surface of HT1080_OX40 cells (human) (UniProt P43489); assay: HT1080_OX40 cells, imaging
[3] = biological target: T1, CD137 protein (His-tagged, Sino Biological Inc. 10041-H08H) (human, UniProt Q07011 24-186); assay: ELISA, coated His-tagged CD137; also: test concentration or dose not given here
T1 construct: bought protein coated on ELISA plates; also called 4-1BB; TNFRSF9; not shown: His tag

[4] = biological target: T2, CD137 expressed on the cell surface of HT1080_4-1BB cells (human, UniProt Q07011 24-255); assay: HT1080_4-1BB cells, imaging; also: test concentration or dose not given here
T2 construct: whole, on cells; species not restated for the HT1080 transfectant
T2 sequence (Q07011 24-255): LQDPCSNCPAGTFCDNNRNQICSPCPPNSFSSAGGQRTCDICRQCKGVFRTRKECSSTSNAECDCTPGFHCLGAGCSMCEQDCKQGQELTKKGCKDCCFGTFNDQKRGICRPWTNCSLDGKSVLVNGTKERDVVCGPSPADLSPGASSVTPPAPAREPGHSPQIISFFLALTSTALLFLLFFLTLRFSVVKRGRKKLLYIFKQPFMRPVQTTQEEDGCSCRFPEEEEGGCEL

[5] = biological target: T2, CD137 expressed on the cell surface of …; assay: cell-based or functional assay
For Functional assay Cross-linked by F(ab′)2 fragment IL-8 in this document: test concentration or dose not given here.
For Functional assay IL-8 in this document: test concentration or dose not given here.

CD134 expressed on the cell surface of HT1080_OX40 cells (human), sequence (P43489 29-277): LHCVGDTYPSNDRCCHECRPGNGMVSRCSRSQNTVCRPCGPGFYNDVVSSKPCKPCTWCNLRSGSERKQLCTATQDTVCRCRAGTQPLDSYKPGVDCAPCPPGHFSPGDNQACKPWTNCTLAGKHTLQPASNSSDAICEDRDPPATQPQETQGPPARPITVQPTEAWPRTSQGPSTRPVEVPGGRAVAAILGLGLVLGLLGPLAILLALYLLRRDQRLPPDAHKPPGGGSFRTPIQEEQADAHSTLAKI

| Binder | EC 50 (IL-8 release, cross-linked) [1] [ng/mL] | Functional assay Cross-linked by F(ab′)2 fragment IL-8 [1] [abs. corr.] | Functional assay IL-8 [1] [abs. corr.] | Cellular binding assay [RFU] [2] [RFU] | ELISA [abs. corr.] [3] [abs. corr.] | Cellular binding assay [RFU] [4] [RFU] | Functional assay Cross-linked by F(ab′)2 fragment IL-8 [5] [abs. corr.] | Functional assay IL-8 [5] [abs. corr.] |
| --- | --- | --- | --- | --- | --- | --- | --- | --- |
| P018.S.05.A.G03 (antibody, V domains shown) VH: QEQLVESGGGLVQPEGSLTVTCTASGFSFSNSYWMCWVRQAPGKGLEWIACIYLGSAGTTHHATWAKGRFTISKTTSTTVTLQMTSLTAADTATYFCARAGHDYWGAYHTLWGPGTLVTVSS VL: DVVMTQTPASVSEPVGGSVTIKCQASQNIDNTLAWYQQKAGQPPKLLIYHASTLASGVPSRFRGSGSGTDFTLTISDLESADAATYYCQCPYYGSTYVYSFGGGTEVVVK | 966 | 2.39 | 0.032 | 40 |  |  |  |  |
| P018.S.13.A.G03 (antibody, V domains shown, V regions on human Ig constant parts; also called AB137_7) VH: QSLEESGGRLVTPGTPLTLTCTASGFSLSSYDVSWVRQAPGKGLEYIGFIGSDGSAHYATWVKGRFTISKTSTTVDLKITSPTTEDTATYFCARDWNDYWAHDLWGPGTLVTVSS VL: AQVLTQTTSPVSAAVGGTVTINCQASQIVTSKSALSWYQQKPGQPPRLLIYKASTLASGVPSRFSGSGSGTQFTLTISDLESDDAATYYCAGGYYNSGDLNPFGGGTEVVVK |  |  |  |  | 1.73 | 13 | 0.789 | -0.164 |

Now from value to binder:

| EC 50 (IL-8 release, cross-linked) [1] [ng/mL] | Functional assay Cross-linked by F(ab′)2 fragment IL-8 [1] [abs. corr.] | Functional assay IL-8 [1] [abs. corr.] | Cellular binding assay [RFU] [2] [RFU] | ELISA [abs. corr.] [3] [abs. corr.] | Cellular binding assay [RFU] [4] [RFU] | Functional assay Cross-linked by F(ab′)2 fragment IL-8 [5] [abs. corr.] | Functional assay IL-8 [5] [abs. corr.] | Binder |
| --- | --- | --- | --- | --- | --- | --- | --- | --- |
|  |  |  |  | 2.07 | 19 | 1.14 | 0.222 | P018.S.14.A.G03 (antibody, V domains shown, V regions on human Ig constant parts; also called AB137_11) VH: QSLEESGGRLVTPGTPLTLTCTVSGIDLSSYHMCWVRQAPGKGLEYIGYIAYGGNTYYANWAKGRFTISKTSTTVDLRITSPTTEDTATYFCARGYSEDSYWGLWGPGTLVTVSS VL: AYDMTQTPASVEAAVGGTVTIKCQASQNIENYLAWYQQKPGQPPKLLIYDTSKLTSGVPSRFSGSGSGTDFTLTISGVQSDDAATYYCQQDYGIIFVDNIFGGGTEVVVK |
|  |  |  |  | 3.44 | 81 | 0.972 | 0.785 | P018.S.14.A.A04 (antibody, V domains shown, V regions on human Ig constant parts; also called AB137_9) VH: QSLEESGGRLVTPGTPLTLTCTVSGFSLNDYWMSWVRQAPGKGLEWIGYIDVGGSLYYASWAKGRFTISRTSTTVDLKMTSLTTEDTATYFCARGGLTYGFDLWGPGTLVTVSS VL: DIVMTQTPASVSEPVGGTVTINCQASEDISSYLAWYQQKPGQRPKRLIYGASDLASGVPSRFSASGSGTEYALTISDLESADAATYYCHYYATISGLGVAFGGGTEVVVK |
